The subject of the assay is pCRE-Luc reporter (cyclic AMP response element). The assay can be described thus: pCRE-Luc reporter assay of CREAP1 deletion fragments in Hela cells. The settings on record: for Activity: Flag-CREAP1 deletion constructs co-transfected with pCRE-Luc in Hela cells, Dual-Glo Luciferase 40 hrs after transfection. The assay is classed as cell-based. The method, then:
CREAP1 protein amino acids 1-170, 1-356, […], 1-580 and 170-650 are inserted into pFlag-CMV4 expression vector (Sigma, St. Louis, Mo.) by utilizing PCR strategy familiar to one of skill in the art. 10^4 Hela cells are split into each well of 96 well tissue culture plates. Cells are transfected 16 hours later with 100 ng of pCRE-Luc reporter construct, 30 ng of Renilla luciferase control plasmid together with 100 ng of pCMVSPORT6, pCMVSPORT-CREAP1 and different Flag-CREAP1 deletion fusion constructs respectively. Transfection is done with Fugene6 reagent (Roche Applied Biosciences) following the manufacturer's instructions. A Dual-Glo Luciferase assay (Promega) is conducted 40 hrs after transfection. Firefly luciferase counts are normalized to Renilla luciferase and plotted.
To dissect the functional domains within the CREAP1 molecule, CREAP1 protein fragments of amino acids 1-170, 1-356, 1-494, 1-580 and 170-650 were subcloned into pFlag-CMV4 vector by utilizing PCR based strategy and tested for function in a Dual Glo Luciferase assay as described above.
(Reporter assays use an easily measured gene product as a stand-in for the process of interest.)

“Also recorded” adds a separate entry of the source.

B1: K2: CREAP1 fragment, amino acids 1-356, SEQ ID NO 33, Flag fusion (protein)
chain: MATSNNPRKFSEKIALHNQKQAEETAAFEEVMKDLSLTRAARLQLQKSQYLQLGPSRGQYYGGSLPNVNQIGSGTMDLPFQPSGFLGEALAAAPVSLTPFQSSGLDTSRTTRHHGLVDRVYRERGRLGSPHRRPLSVDKHGRQADSCPYGTMYLSPPADTSWRRTNSDSALHQSTMTPTQPESFSSGSQDVHQKRVLLLTVPGMEETTSEADKNLSKQAWDTKKTGSRPKSCEVPGINIFPSADQENTTALIPATHNTGGSLPDLTNIHFPSPLPTPLDPEEPTFPALSSSSSTGNLAANLTHLGIGGAGQGMSTPGSSPQHRPAGVSPLSLSTEARRQQASPTLSPLSPITQAVA
modifications: Flag tag; human
Regarding B1, the outcome was Inactive. The “reduction of functional activity of CREAP1” value (K2 compared with K4 (removal of amino acids 356-580)) came out at 10 fold.

B2: K5: CREAP1 fragment, amino acids 170-650, SEQ ID NO 36, Flag fusion (protein)
chain: ALHQSTMTPTQPESFSSGSQDVHQKRVLLLTVPGMEETTSEADKNLSKQAWDTKKTGSRPKSCEVPGINIFPSADQENTTALIPATHNTGGSLPDLTNIHFPSPLPTPLDPEEPTFPALSSSSSTGNLAANLTHLGIGGAGQGMSTPGSSPQHRPAGVSPLSLSTEARRQQASPTLSPLSPITQAVAMDALSLEQQLPYAFFTQAGSQQPPPQPQPPPPPPPASQQPPPPPPPQAPVRLPPGGPLLPSASLTRGPQPPPLAVTVPSSLPQSPPENPGQPSMGIDIASAPALQQYRTSAGSPANQSPTSPVSNQGFSPGSSPQHTSTLGSVFGDAYYEQQMAARQANALSHQLEQFNMMENAISSSSLYSPGSTLNYSQAAMMGLTGSHGSLPDSQQLGYASHSGIPNIILTVTGESPPSLSKELTSSLAGVGDVSFDSDSQFPLDELKIDPLTLDGLHMLNDPDMVLADPATEDTFRMDRL
modifications: Flag tag; human
B2: the Activity result is listed as “lacked almost all stimulating activity”. Under “listed as KS”, the result was Inactive.

B3: K4: CREAP1 fragment, amino acids 1-580, SEQ ID NO 35, Flag fusion (protein)
chain: MATSNNPRKFSEKIALHNQKQAEETAAFEEVMKDLSLTRAARLQLQKSQYLQLGPSRGQYYGGSLPNVNQIGSGTMDLPFQPSGFLGEALAAAPVSLTPFQSSGLDTSRTTRHHGLVDRVYRERGRLGSPHRRPLSVDKHGRQADSCPYGTMYLSPPADTSWRRTNSDSALHQSTMTPTQPESFSSGSQDVHQKRVLLLTVPGMEETTSEADKNLSKQAWDTKKTGSRPKSCEVPGINIFPSADQENTTALIPATHNTGGSLPDLTNIHFPSPLPTPLDPEEPTFPALSSSSSTGNLAANLTHLGIGGAGQGMSTPGSSPQHRPAGVSPLSLSTEARRQQASPTLSPLSPITQAVAMDALSLEQQLPYAFFTQAGSQQPPPQPQPPPPPPPASQQPPPPPPPQAPVRLPPGGPLLPSASLTRGPQPPPLAVTVPSSLPQSPPENPGQPSMGIDIASAPALQQYRTSAGSPANQSPTSPVSNQGFSPGSSPQHTSTLGSVFGDAYYEQQMAARQANALSHQLEQFNMMENAISSSSLYSPGSTLNYSQAAMMGLTGSHGSLPDSQQLGYASHSGIPNIILT
modifications: Flag tag; human
Turning to B3, the Activity entry was “retains almost all wild type activity; also recorded: Fully active”.

B4: K3: CREAP1 fragment, amino acids 1-494, SEQ ID NO 34, Flag fusion (protein)
chain: MATSNNPRKFSEKIALHNQKQAEETAAFEEVMKDLSLTRAARLQLQKSQYLQLGPSRGQYYGGSLPNVNQIGSGTMDLPFQPSGFLGEALAAAPVSLTPFQSSGLDTSRTTRHHGLVDRVYRERGRLGSPHRRPLSVDKHGRQADSCPYGTMYLSPPADTSWRRTNSDSALHQSTMTPTQPESFSSGSQDVHQKRVLLLTVPGMEETTSEADKNLSKQAWDTKKTGSRPKSCEVPGINIFPSADQENTTALIPATHNTGGSLPDLTNIHFPSPLPTPLDPEEPTFPALSSSSSTGNLAANLTHLGIGGAGQGMSTPGSSPQHRPAGVSPLSLSTEARRQQASPTLSPLSPITQAVAMDALSLEQQLPYAFFTQAGSQQPPPQPQPPPPPPPASQQPPPPPPPQAPVRLPPGGPLLPSASLTRGPQPPPLAVTVPSSLPQSPPENPGQPSMGIDIASAPALQQYRTSAGSPANQSPTSPVSNQGFSPGSSPQHTS
modifications: Flag tag; human
For the molecule B4, the Activity entry is reported as “Partially Active”.
